From patent US20260125454A1 (SHANGHAI JUNSHI BIOSCIENCES, published 2026)

T1: Biotin-huCGRPaSA (human, not fully specified; biotin (position not given))
T1 construct: exact construct ('aSA') not explained; also called Biotin CGRPaSA; full-length (1-37) CGRP
T1 peptide: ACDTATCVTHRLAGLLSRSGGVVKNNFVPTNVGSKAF


Molecular target: T1, Biotin-huCGRPaSA
Assay: ELISA, supernatant; relative to chimeric C245
Procedure: Biotin CGRPaSA was diluted with PBS (Hyclone) to 1.0 μg/mL, and the dilution was added to a microplate at 100 μL/well. The plate was let stand in an incubator at 37° C. and coated for 90 min and then washed, and 2% BSA was added to the plate at 200 μL/well. The plate was incubated in an incubator at 37° C. for 90 min and then washed. The humanized antibodies in Table 8 and the reference antibody (chimeric antibody C245) were diluted to 1000 ng/mL with a diluent (2% BSA) with a dilution factor of not more than 10. Then, the chimeric antibodies and the reference antibody were serially 2.5-fold diluted on a sample dilution plate. All the chimeric antibody solutions and the reference antibody solution were added into plates at 100 μL/well, and the plates were incubated in a thermostat incubator at 37° C. for 60 min and washed. An HRP-conjugated goat anti-human antibody IgG (manufacturer: Sigma, Cat. No. A0170; Fc specificity) was diluted 5000-fold with 2% BSA and added into the plates at 100 μL/well, and the plates were incubated in the thermostat incubator at 37° C. for 60 min and washed. Chromogenic reagent TMB was carefully added at 100 μL/well to avoid bubbles, and the system was incubated at 37° C. for 15 min away from light for chromogenic reaction. Finally, a 2 M hydrochloric acid solution was added at 100 μL/well to stop the reaction while avoiding bubbles, and the plates were read on a microplate reader within 10 min (wavelength: 450/620 nm).

Binder | Relative binding activity, %
hu220 (antibody, V domains shown, 3H10 HC-2/3H10 LC2-1) VH: QVQLVQSGAEVKKPGASVKVSCKASGYTFTDYNMHWVRQAPGQGLEWMGYIYPYNGHTVYNQKFRNRVTLTVDTSSSTAYMELRSLRSDDTAVYYCAREGLGGYWGQGTLVTVSS VL: DIVLTQSPDSLAVSLGERATINCKASQNIDYGGYSYMNWYQQKPGQPPKVLIYSVFNLESGVPDRFSGSGSGTDFTLTISSLQAEDVAVYYCQQSNEAPYTFGQGTKLEIK | 83%
hu217 (antibody, V domains shown, 3H10 HC-2/2B8 LC2-1) VH: QVQLVQSGAEVKKPGASVKVSCKASGYTFTDYNMHWVRQAPGQGLEWMGYIYPYNGHTVYNQKFRNRVTLTVDTSSSTAYMELRSLRSDDTAVYYCAREGLGGYWGQGTLVTVSS VL: DIVLTQSPDSLAVSLGERATINCQASQNIDGNTYMNWYQQKPGQPPKVLIYSIFNLESGVPDRFSGSGSGTDFTLTISSLQAEDVAVYYCQQSNDYPYTFGQGTKLEIK | 73%
hu9 (antibody, V domains shown, 1B2 HC-1/2B8 LC2-1) VH: QVQLVQSGAEVKKPGASVKVSCKASGYTFTDYNMHWVRQAPGQGLEWMGYIFPYNGVAVYNRKFRSRVTLTIDTSSSTAYMELRSLRSDDTAVYYCAREGLGGYWGQGTLVTVSS VL: DIVLTQSPDSLAVSLGERATINCQASQNIDGNTYMNWYQQKPGQPPKVLIYSIFNLESGVPDRFSGSGSGTDFTLTISSLQAEDVAVYYCQQSNDYPYTFGQGTKLEIK | 45%
hu22 (antibody, V domains shown, 1B2 HC-2/2B8 LC2-1) VH: QVQLVQSGAEVKKPGASVKVSCKASGYTFTDYNMHWVRQAPGQRLEWMGYIFPYNGVAVYNRKFRSRVTLTVDTSSSTAYMELSSLRSEDTAVYYCAREGLGGYWGQGTLVTVSS VL: DIVLTQSPDSLAVSLGERATINCQASQNIDGNTYMNWYQQKPGQPPKVLIYSIFNLESGVPDRFSGSGSGTDFTLTISSLQAEDVAVYYCQQSNDYPYTFGQGTKLEIK | 76%
hu35 (antibody, V domains shown, 1F5 HC-1/2B8 LC2-1) VH: QVQLVQSGAEVKKPGASVKVSCKASGYTFIDFNMHWVRQAPGQRLEWMGYIYPYNGDVVYNQNFTNRVTLTVDTSSSTAYMELSSLRSEDTAVYYCAREGLGGYWGQGTLVTVSS VL: DIVLTQSPDSLAVSLGERATINCQASQNIDGNTYMNWYQQKPGQPPKVLIYSIFNLESGVPDRFSGSGSGTDFTLTISSLQAEDVAVYYCQQSNDYPYTFGQGTKLEIK | 65%
hu48 (antibody, V domains shown, 1F5 HC-2/2B8 LC2-1) VH: QVQLVQSGAEVKKPGASVKVSCKASGYTFTDFNMHWVRQAPGQRLEWMGYIYPYNGDVVYNQNFTNRVTLTVDTSSSTAYMELSSLRSEDTAVYYCAREGLGGYWGQGTLVTVSS VL: DIVLTQSPDSLAVSLGERATINCQASQNIDGNTYMNWYQQKPGQPPKVLIYSIFNLESGVPDRFSGSGSGTDFTLTISSLQAEDVAVYYCQQSNDYPYTFGQGTKLEIK | 40%
hu61 (antibody, V domains shown, 1F5 HC-3/2B8 LC2-1) VH: QVQLVQSGAEVKKPGASVKVSCKASGYTFTDFNMHWVRQAPGQGLEWMGYIYPYNGDVVYNQNFTNRVTLTVDTSSSTAYMELRSLRSDDTAVYYCAREGLGGYWGQGTLVTVSS VL: DIVLTQSPDSLAVSLGERATINCQASQNIDGNTYMNWYQQKPGQPPKVLIYSIFNLESGVPDRFSGSGSGTDFTLTISSLQAEDVAVYYCQQSNDYPYTFGQGTKLEIK | 56%
hu113 (antibody, V domains shown, 2B8 HC1-1/2B8 LC2-1) VH: QVQLVQSGAEVKKPGASVKVSCKASGYTFTDYNMHWVRQAPGQGLEWMGNIYPYNGGTVYNQKFNNRVTLTVDTSSSTAYMELSRLRSDDTAVYYCAREGLGGYWGQGTLVTVSS VL: DIVLTQSPDSLAVSLGERATINCQASQNIDGNTYMNWYQQKPGQPPKVLIYSIFNLESGVPDRFSGSGSGTDFTLTISSLQAEDVAVYYCQQSNDYPYTFGQGTKLEIK | 44%
hu126 (antibody, V domains shown, 2B8 HC1-2/2B8 LC2-1) VH: QVQLVQSGAEVKKPGASVKVSCKASGYTFTDYNMHWVRQAPGQGLEWMGNIYPYNGGTVYNQKFNNRVTLTVDTSSSTAYMELRSLRSDDTAVYYCAREGLGGYWGQGTLVTVSS VL: DIVLTQSPDSLAVSLGERATINCQASQNIDGNTYMNWYQQKPGQPPKVLIYSIFNLESGVPDRFSGSGSGTDFTLTISSLQAEDVAVYYCQQSNDYPYTFGQGTKLEIK | 79%
hu139 (antibody, V domains shown, 2B8 HC1-3/2B8 LC2-1) VH: QVQLVQSGAEVKKPGASVKVSCKASGYTFTDYNMHWVRQAPGQGLEWMGNIYPYNAGTVYNQKFNNRVTLTVDTSSSTAYMELSRLRSDDTAVYYCAREGLGGYWGQGTLVTVSS VL: DIVLTQSPDSLAVSLGERATINCQASQNIDGNTYMNWYQQKPGQPPKVLIYSIFNLESGVPDRFSGSGSGTDFTLTISSLQAEDVAVYYCQQSNDYPYTFGQGTKLEIK | 84%
hu152 (antibody, V domains shown, 3E5 HC-1/2B8 LC2-1) VH: QVQLVQSGAEVKKPGASVKVSCKTSGYTFTDYNMHWVRQAPGQRLEWMGYISPYNGGTAYNQKFKFRVTLTVDTSSSTAYMELSSLRSEDTAVYYCAREGLGGYWGQGTLVTVSS VL: DIVLTQSPDSLAVSLGERATINCQASQNIDGNTYMNWYQQKPGQPPKVLIYSIFNLESGVPDRFSGSGSGTDFTLTISSLQAEDVAVYYCQQSNDYPYTFGQGTKLEIK | 109%
hu165 (antibody, V domains shown, 3E5 HC-2/2B8 LC2-1) VH: QVQLVQSGAEVKKPGASVKVSCKASGYTFTDYNMHWVRQAPGQRLEWMGYISPYNGGTAYNQKFKFRVTLTVDTSSSTAYMELSSLRSEDTAVYYCAREGLGGYWGQGTLVTVSS VL: DIVLTQSPDSLAVSLGERATINCQASQNIDGNTYMNWYQQKPGQPPKVLIYSIFNLESGVPDRFSGSGSGTDFTLTISSLQAEDVAVYYCQQSNDYPYTFGQGTKLEIK | 87%
hu178 (antibody, V domains shown, 3E5 HC-3/2B8 LC2-1) VH: QVQLVQSGAEVKKPGASVKVSCKASGYTFTDYNMHWVRQAPGQGLEWMGYISPYNGGTAYNQKFKFRVTLTVDTSSSTAYMELSRLRSDDTVVYYCAREGLGGYWGQGTLVTVSS VL: DIVLTQSPDSLAVSLGERATINCQASQNIDGNTYMNWYQQKPGQPPKVLIYSIFNLESGVPDRFSGSGSGTDFTLTISSLQAEDVAVYYCQQSNDYPYTFGQGTKLEIK | 65%
hu191 (antibody, V domains shown, 3E5 HC-4/2B8 LC2-1) VH: QVQLVQSGAEVKKPGASVKVSCKTSGYTFTDYNMHWVRQAPGQRLEWMGYISPYNAGTAYNQKFKFRVTLTVDTSSSTAYMELSSLRSEDTAVYYCAREGLGGYWGQGTLVTVSS VL: DIVLTQSPDSLAVSLGERATINCQASQNIDGNTYMNWYQQKPGQPPKVLIYSIFNLESGVPDRFSGSGSGTDFTLTISSLQAEDVAVYYCQQSNDYPYTFGQGTKLEIK | 68%
hu204 (antibody, V domains shown, 3H10 HC-1/2B8 LC2-1) VH: QVQLVQSGAEVKKPGASVKVSCKASGYTFTDYNMHWVRQAPGQGLEWMGYIYPYNGHTVYNQKFRNRVTMTVDTSSSTAYMELRSLRSDDTAVYYCAKEGLGGYWGQGTLVTVSS VL: DIVLTQSPDSLAVSLGERATINCQASQNIDGNTYMNWYQQKPGQPPKVLIYSIFNLESGVPDRFSGSGSGTDFTLTISSLQAEDVAVYYCQQSNDYPYTFGQGTKLEIK | 68%
hu210 (antibody, V domains shown, 3H10 HC-2/1A2 LC2-2) VH: QVQLVQSGAEVKKPGASVKVSCKASGYTFTDYNMHWVRQAPGQGLEWMGYIYPYNGHTVYNQKFRNRVTLTVDTSSSTAYMELRSLRSDDTAVYYCAREGLGGYWGQGTLVTVSS VL: DIVLTQSPASLAVSPGQRATITCKASQNIDYDGYAYLNWYQQKPGQPPKVLIYSVFNLESGVPARFSGSGSGTDFTLTINPVEADDTANYYCQQSNEFPYTFGQGTKLEIK | 73%
